No end group written: not given here.
B1: CL0020161 (antibody, V domains shown)
VH: EVQLVESGGGLVQPGRSMKLSCAALGFTFSNYYMAWVRQAPRKGLEWVASISTGGDNTYYRDSVKGRFTISRDNAKSTLYMQMDSLRSEDTATYYCVRSFIVGTTGYYFDYWGQGVMVTVSS
VL: DIVLTQSPALAVSLGQRATISCKTNQNVDYYGNNYMHWYQQTPGQQPKLLIYFASNLASGIPARFSGRGSGTDFTLTIDPVEADDTATYYCQQSRNLPTFGGGTKLELK
notes: also called Clone CL0020161
B2: CL0020109 (antibody, V domains shown)
VH: EVQLQQSGPVLVKPGASLKMSCRASGYTFTDYYVHWVKQSHGKSLEWIGLINPYTGTTSYNQRFKGKATLTVDKSSSTAYMEVNSLTSEDSAVYYCARSRVYYGSSLFAFWGQGTLVTVSA
VL: DIVMTQSPSSLSVSAGEKVTMSCKSSQSLLNSGNQKNYLAWYQQKPGQPPKLLIYGASTRESGVPDRFTGSGSGTDFTLTISSVQAEDLAVYYCQNDHSYPYTFGGGTKLEIK
notes: also called Clone CL0020109
B3: CL0020096 (antibody, V domains shown)
VH: QIQLVQSGPELRKPGETVKISCKASGYTFTTYGMSWVKQAPGKGLKWMGWINTYSGLPRHSDDFKGRFAFSLETSASTAYLQINNLKNEDTATYFCAREVYYGSRKTAWFAYWGQGTLVTVSA
VL: DLVMSQSPSSLAVSVGERVTMSCKSSQSLLYSNDQKNYLAWYQQIPGQSPKLLIYWASTRESGVPDRFTGSGSGTDFTLTISSVKAEDLAVYFCQQYYSYPPTFGAGTKLELK
notes: also called Clone CL0020096
B4: CL0020103 (antibody, V domains shown)
VH: EVQLQQSGPELVKPGASVKISCKTSGYTFTEYTMHWVKESHGKSLEWIGGINPNKGGSSYNQKFKGKATLTVDKSSSTAYMDLRRLTSEDSAVYYCARGGYEYYALDYWGQGTSVTVSS
VL: DIVMSQSPSSLTVSVGERVTMSCKSSQSLLYSRNQKNYLAWYQQKPGQSPKLLIYWASTRESGVPDRFTGSGSGTDFSLTISSVKAEDLAVYYCQQYYSYPPTFGGGTKLEIK
notes: also called Clone CL0020103
B5: CL0020214 (antibody, V domains shown)
VH: QVRLQQSGAELVRPGSSVKLSCKASGYAFSSYWMNWVKQRPGQGLEWIGQIYPGDGDTNYNGNFKGKATLTADNSSSTAYMQLSSLTSEDSAVYFCARRRNGDFGDYAMDYWGQGTSVTVSS
VL: QIVLTQSPAIMSASPGEKVTISCSASSSVSYMCWYQQKPGSSPKPWIYRTSTLASGVPARFSGSGSGTSYSLTISSMEAADAATYYCQHYHSYPFTFGAGTKLELK
notes: also called Clone CL0020214
B6: CL0020215 (antibody, V domains shown)
VH: QVQLQQPGAELVKPGASVKMSCKASGYTFTNYWIMWVKQRPGQGLEWIGDIYPSSGSTNYNEKFKNRATLTVDTSSNTAYMQLSSLTSEDSAVYFCSREGYGISAWGQGTTLTVSS
VL: QIVLTQSPAIMSASPGEKVTITCSASSSVSYMHWFQQKPGTSPKLWIYSTSNLASGVPARFSGSGSGTSCSLTISRMEAEDAATYYCQQRSSFPLTFGAGTKLELK
notes: also called Clone CL0020215
B7: CL0020111 (antibody, V domains shown)
VH: QVQLQQPGADLVKPGASVKMSCKASGYTFTNYWITWVQQRPGQGLEWIGDIYPGSGNTNYNEKFRSKATLTVDTSSNTAYMQLSSLTSEDSAVYYCSREGYGISAWGQGTTLTVSS
VL: QIVLTQSPAFMSASPGEKVTITCRASSSVSYMHWFQQKPGTSPKLWIFSTSNLASGVPARFSGSGSGTSHSLTISRMEAEDAATYYCQQRSGYPLTFGAGTKLELK
notes: also called Clone CL0020111
B8: CL0020162 (antibody, V domains shown)
VH: QIQLVQSGPELKKPGESLKISCKASGYTFTDYAMQWVKQAPEKGLQYMGWINTQTGKPTYADDFKERFVFSLETSATTAYLQINNLKNEDMATYFCVRSYNNYENWFAYWGQGTLVTVSS
VL: DIVMTQSPSSLAVSAGETVTINCKSSQSLLYSGNQKNYLAWYQQKPGQSPKVLIYWASTRQFGVPDRFIGSGSGTDFTLTISSVQAEDLAIYYCQQYYNSPITFGSGTKLEIK
notes: also called Clone CL0020162
B9: CL0020186 (antibody, V domains shown)
VH: EVQLVESGGGLVQPGRSLKLSCPASGFTFSYYGMAWVRQAPTKGLEWVASISTGGGNTYYRDSVKGRFTISRDNAKNTLYLQMDSLRSEDTATYYCARGDIGTAYWFTYWGQGTLVTVSS
VL: NIQLTQSPSLLSASVGDRVTLSCKGSQNINNYLAWYQQKLGEAPKLLIYKTNSLLTGIPSRFSGSGSGTDYTLTISSLHSEDLATYYCYQYNNGWTFGGGTKLELK
notes: also called Clone CL0020186
B10: CL0020164 (antibody, V domains shown)
VH: EVKLLESGGGLVQPGGSLRLSCAASGFTFTDFYMSWIRQPPGKAPEWLGVIRNKANGFTTEYNTSVKGRFTISRDYTQNILHLQTNTLRAEDTAIYYCARLTYGFDYWGQGVMVTVSS
VL: DIVMTQGALPNPVPSGESASITCQSSKSLLHSNGKTYLNWYLQRPGQSPQFLIYWMSTRASGVSDRFSGSGSGTDFTLKISSVEAEDVGVYYCQQFLELPFTFGSGTKLEIK
notes: also called Clone CL0020164
B11: CL0020141 (antibody, V domains shown)
VH: EVTLVESGGGLVQPGGSLRLSCATSGFTFTDYYMSWVRQPPGKALEWLGFIRDKANGYTTDYSASVKGRFTISRDNSQNILYLQMNTLRAEDSATYYCSRLLRAQGFAYWGQGTLVTVSA
VL: DIVMSQSPSSLGVSIGEKVIMSCTSGQSLLYSNNQKNYLAWYQQKPGQSPKLLIYWASTRESGVPDRFTGSGSGTDFTLTINSVKAEDLAVYYCQQYYRNPFTFGSGTKLEIK
notes: also called Clone CL0020141
B12: CL0020124 (antibody, V domains shown)
VH: EVQLQQSGPVLVKPGASVKMSCKPSGYTFTDYYMNWVKQSHGKSLEWIGSINPYTGGSSYNQKFRGKATLTVDKSSSTAYMELNSLTSEDSAVYYCARGSYYSNLGFAYWGQGTLVTVSA
VL: DVQLTQSPSYLTASPGETITINCRASKSISKYLAWYQEKPGKTNKLLISSGSTLQSGIPSRFSGSGSGTDFTLTISSLEPEDFAMYYCQQYSEYPFTFGSGTKLEIK
notes: also called Clone CL0020124
B13: CL0020173 (antibody, V domains shown)
VH: EVKLLESGGGLVQPGSSMRLSCAASGFTFTDFYMNWIRQPAGRAPEWLGFFRNIVDGYTTEYNPSVKGRFTISRDNTQNMLYLQMNTLRAEDTATYYCARSGYSSYIYGGTFAYWGQGTLVTVSS
VL: ETVMTQSPTSMSTSIGERVTLNCKASQSVGIHVDWYQQTPGQSPKLLIYGASNRHTGVPDRFTGSGFGRDFTLTISNVEAEDLAVYYCLQYGSIPWTFGGGTKLELK
notes: also called Clone CL0020173

Legend:
[1] = molecular target: T1, human TREM2 truncated stalk peptide (aa 149-163) (human, also: biotinylated (site not given here)); experiment: ELISA on biotinylated peptide captured by streptavidin; A450 normalised to isotype control
T1 construct: also called Human TREM2 peptide (aa 149-163); truncated stalk peptide containing the ADAM10/17 cleavage site
T1 peptide: SFEDAHVEHSISRSL
Protocol: (§1) TREM2 antibodies were evaluated for binding to human and mouse TREM2 stalk region peptides. […] Antibody binding to TREM2 stalk peptides was detected using standard sandwich ELISA. Briefly, a 96-well half-area ELISA plate was coated with streptavidin overnight at 4° C. The following day, biotinylated TREM2 stalk peptides diluted in 1% BSA/PBS were added to the plate and incubated for 1 hour. Antibodies diluted in 1% BSA/PBS were then added and incubated for 1 hour. Antibodies bound to peptide were detected with anti-human kappa-HRP secondary antibody (Bethyl Laboratories, Inc.) diluted in 1% BSA/PBS. Plates were assayed by reaction with a detection reagent (One-step TMB Ultra, Thermo) and measurement of absorbance at 450 nm (A450) by standard spectrophotometry instrumentation (BioTek®). Data are shown as normalized values (fold over background where background=isotype control).

[2] = molecular target: T2, human TREM2 full length stalk region peptide (aa 129-172) (human, biotinylated (site not stated)); experiment: as above
T2 construct: also called Human TREM2 peptide (aa 129-172); full-length TREM2 stalk peptide
T2 peptide: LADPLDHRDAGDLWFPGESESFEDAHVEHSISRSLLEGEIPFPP
Protocol: as §1

[3] = molecular target: T3, mouse TREM2 full length stalk region peptide (aa 131-169) (mouse, UniProt Q99NH8 131-169, biotinylated (site not stated)); experiment: as above
T3 peptide (looked up): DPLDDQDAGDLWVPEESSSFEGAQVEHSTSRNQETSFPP
Protocol: as §1

[4] = molecular target: T4, human TREM2 on the cell surface (human, UniProt Q9NZC2 19-230); experiment: cell binding, human macrophages, dose titration
T4 construct: also called surface TREM2; TREM2 expressed in HEK293-H6 cells
T4 sequence: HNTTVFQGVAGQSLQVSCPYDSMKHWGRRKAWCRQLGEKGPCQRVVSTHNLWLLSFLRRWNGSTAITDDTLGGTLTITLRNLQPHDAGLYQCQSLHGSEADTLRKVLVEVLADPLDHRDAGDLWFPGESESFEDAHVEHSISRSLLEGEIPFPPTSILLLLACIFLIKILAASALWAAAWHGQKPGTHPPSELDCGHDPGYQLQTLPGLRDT

[5] = molecular target: T4, human TREM2 on the cell surface; experiment: cell-based or functional assay
[6] = molecular target: T5, His-tagged human TREM2 ECD (human, UniProt Q9NZC2 19-172); experiment: SPR (Biacore), antibody captured via anti-human Fab, recombinant TREM2 ECD injected, 1:1 fit
T5 construct: Biacore and HDX say only recombinant human TREM2 (ECD); also called recombinant human TREM2; hTREM2
T5 sequence: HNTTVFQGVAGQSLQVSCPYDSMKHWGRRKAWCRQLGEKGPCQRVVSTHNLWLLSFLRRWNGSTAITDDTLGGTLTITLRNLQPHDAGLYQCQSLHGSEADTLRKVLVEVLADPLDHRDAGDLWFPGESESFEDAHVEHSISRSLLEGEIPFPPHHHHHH
Protocol: Surface plasmon resonance (Biacore™ 8K instrument) was used to measure anti-TREM2 antibody affinities for human and cynomolgus TREM2 ECD. Anti-TREM2 antibodies were captured using Human Fab Capture Kit (GE Healthcare Life Sciences, Catalog No. 28958325) on a Biacore Series S CM5 sensor chip (GE Healthcare Life Sciences, Catalog No. 29149604). Serial 3-fold dilutions of recombinant human or cynomolgus TREM2 were injected at a flow rate of 30 μL/min. Antibody binding was monitored for 300 seconds, followed by monitoring of antibody dissociation for 600+seconds in HBS-EP+ running buffer (GE Healthcare Life Sciences, Catalog No. BR100669). The binding response was corrected by subtracting the RU value from a blank flow cell. A 1:1 Languir model of simultaneous fitting of kₒₙ and koff was used for kinetics analysis.

Row | Binder | fold over background (A450) [1] | fold over background (A450) [2] | fold over background (A450) [3] | EC50 [4] | NFAT EC50 (nM), plate coated mAb [5] | Survival EC50 (nM), plate coated mAb, human macrophages [5] | pSyk activation (human macrophages) EC50 (nM) [5] | Kd [6]
1 | B1 | 1 fold | 1.4 fold | 1.2 fold |  |  |  |  | 
2 | B2 | 1.5 fold | 1.7 fold | 1.7 fold |  |  |  |  | 
3 | B3 |  | 45 fold | 45 fold | 14 nM | 16.2 nM | 1.8 nM | 30.9 nM | 5.54 nM
4 | B4 | 1.8 fold | 56 fold | 4.1 fold |  |  |  |  | 
5 | B5 | 1.3 fold | 1.5 fold | 1.3 fold |  |  |  |  | 
6 | B6 | 1.1 fold | 1.2 fold | 1.1 fold |  |  |  |  | 
7 | B7 | 1.6 fold | 1.3 fold | 1.1 fold |  |  |  |  | 
8 | B8 | 1.3 fold | 49 fold | 10 fold |  |  |  |  | 
9 | B9 | 1.3 fold | 4.9 fold | 7 fold |  |  |  |  | 
10 | B10 | 1.4 fold | 50 fold | 51 fold |  |  |  |  | 
11 | B11 |  | 45 fold |  | 0.6 nM | 25.5 nM | 2 nM | 5.9 nM | 4.6 nM
12 | B12 | 1.5 fold |  | 1.6 fold |  |  |  |  | 
13 | B13 | 1.2 fold | 1.6 fold | 1.2 fold |  |  |  |  | 
